Experimental data published in publication PMC3733153 (Journal of Experimental Botany, 2013).

T1: GST-GDI1(3D), phosphomimetic form GDI1 S45D S48D T52D (Arabidopsis, UniProt Q9SFC6 1-240, S45D | S48D | T52D)
T1 sequence: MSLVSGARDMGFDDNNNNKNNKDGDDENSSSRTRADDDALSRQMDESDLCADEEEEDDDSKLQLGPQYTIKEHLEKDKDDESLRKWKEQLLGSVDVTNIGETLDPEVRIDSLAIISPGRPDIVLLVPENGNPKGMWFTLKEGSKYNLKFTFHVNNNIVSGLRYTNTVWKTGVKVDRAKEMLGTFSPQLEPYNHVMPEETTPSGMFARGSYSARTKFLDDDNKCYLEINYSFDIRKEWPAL

B1: His-ROP2 (natural protein)
chain: not shown
B2: His-ROP10 (natural protein)
chain: not shown
B3: His-ROP6 (natural protein)
chain: not shown

Biological target: T1, GST-GDI1(3D), phosphomimetic form GDI1 …
Experiment: pull-down

**Q.** Does B1 bind?
**A.** binds

**Q.** Does B2 bind?
**A.** binds

**Q.** Does B3 bind?
**A.** binds
